In US20210179693A1 (Xencor, published 2021):
Residue numbers refer to the chain shown, from its start. Numbers in names are those of the source.

B1: anti-VEGF IgG2 N434S (antibody)
heavy: EVQLVESGGGLVQPGGSLRLSCAASGYTFTNYGMNWVRQAPGKGLEWVGWINTYTGEPTYAADFKRRFTFSLDTSKSTAYLQMNSLRAEDTAVYYCAKYPHYYGSSHWYFDVWGQGTLVTVSSASTKGPSVFPLAPCSRSTSESTAALGCLVKDYFPEPVTVSWNSGALTSGVHTFPAVLQSSGLYSLSSVVTVPSSNFGTQTYTCNVDHKPSNTKVDKTVERKCCVECPPCPAPPVAGPSVFLFPPKPKDTLMISRTPEVTCVVVDVSHEDPEVQFNWYVDGVEVHNAKTKPREEQFNSTFRVVSVLTVVHQDWLNGKEYKCKVSNKGLPAPIEKTISKTKGQPREPQVYTLPPSREEMTKNQVSLTCLVKGFYPSDIAVEWESNGQPENNYKTTPPMLDSDGSFFLYSKLTVDKSRWQQGNVFSCSVMHEALHSHYTQKSLSLSPGK
light: not shown
B2: anti-VEGF IgG2 N434T (antibody)
heavy: B1 heavy with S436T
light: not shown
B3: anti-VEGF IgG2 N434D (antibody)
heavy: B1 heavy with S436D
light: not shown
B4: anti-VEGF IgG2 N434V (antibody)
heavy: B1 heavy with S436V
light: not shown
notes: also called 434V in IgG2
B5: anti-VEGF IgG2 N434R (antibody)
heavy: B1 heavy with S436R
light: not shown
B6: anti-VEGF IgG2 N434E (antibody)
heavy: B1 heavy with S436E
light: not shown
B7: anti-VEGF IgG2 N434K (antibody)
heavy: B1 heavy with S436K
light: not shown
B8: anti-VEGF IgG2 N434P (antibody)
heavy: B1 heavy with S436P
light: not shown
B9: anti-VEGF IgG2 M428L/N434S (antibody)
heavy: B1 heavy with M430L
light: not shown

Molecular target: T1, human FcRn (His-tagged alpha chain with beta 2 microglobulin) (human, UniProt P55899 24-297; P61769 21-119, limits assumed)
T1 construct: also called hFcRn; not shown: His tag
Test: Biacore, human FcRn on chip, pH 6.0
Source text: A cycle with antibody and buffer only provided baseline response, which was subtracted from each sample sensorgram.

T1 sequence (P55899 24-297 limits assumed, chain 1 of 2): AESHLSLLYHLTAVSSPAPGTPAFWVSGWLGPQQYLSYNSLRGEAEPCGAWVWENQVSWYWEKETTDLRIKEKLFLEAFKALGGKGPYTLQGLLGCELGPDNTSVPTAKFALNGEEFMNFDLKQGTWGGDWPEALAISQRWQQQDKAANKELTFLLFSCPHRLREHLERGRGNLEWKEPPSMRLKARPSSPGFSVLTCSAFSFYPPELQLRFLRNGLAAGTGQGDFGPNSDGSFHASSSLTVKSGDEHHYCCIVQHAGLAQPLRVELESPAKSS
T1 sequence (P61769 21-119 limits assumed, chain 2 of 2): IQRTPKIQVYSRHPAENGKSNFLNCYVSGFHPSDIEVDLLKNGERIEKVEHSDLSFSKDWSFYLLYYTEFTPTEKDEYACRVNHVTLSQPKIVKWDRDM

Binder	fold FcRn binding relative to WT IgG2 [fold]	further results
B1	–	fold FcRn binding: 4.9 fold
B2	–	binding result: binds
B3	< 0.5	–
B4	< 0.5	–
B5	< 0.5	–
B6	< 0.5	–
B7	< 0.5	–
B8	< 0.5	–
B9	–	fold FcRn binding: 14.8 fold
